Measurements reported in PMC6628001, “The Biochemical Activities of the Saccharomyces cerevisiae Pif1 Helicase Are Regulated by Its N-Terminal Domain”.

T1: Pif1ΔN (Saccharomyces cerevisiae, UniProt P07271 234-859, del1-233)
T1 sequence: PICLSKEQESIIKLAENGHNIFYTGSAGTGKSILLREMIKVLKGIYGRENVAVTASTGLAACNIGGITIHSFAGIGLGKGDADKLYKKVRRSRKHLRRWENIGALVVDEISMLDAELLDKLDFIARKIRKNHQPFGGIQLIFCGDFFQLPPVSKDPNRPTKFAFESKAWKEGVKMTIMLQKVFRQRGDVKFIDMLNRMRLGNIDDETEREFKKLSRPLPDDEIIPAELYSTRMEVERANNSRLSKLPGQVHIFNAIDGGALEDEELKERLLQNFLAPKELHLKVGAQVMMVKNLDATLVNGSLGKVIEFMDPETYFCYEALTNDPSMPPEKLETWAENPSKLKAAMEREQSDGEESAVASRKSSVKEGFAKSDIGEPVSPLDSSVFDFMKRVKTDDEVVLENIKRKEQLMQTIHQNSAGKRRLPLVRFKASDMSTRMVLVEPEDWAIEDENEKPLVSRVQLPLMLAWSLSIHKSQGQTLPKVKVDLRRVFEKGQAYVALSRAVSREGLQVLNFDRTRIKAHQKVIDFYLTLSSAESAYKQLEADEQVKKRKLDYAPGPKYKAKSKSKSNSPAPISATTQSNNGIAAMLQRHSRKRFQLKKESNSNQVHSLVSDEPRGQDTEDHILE

T2: Pif1 (full-length recombinant) (Saccharomyces cerevisiae, UniProt P07271 1-859)
T2 sequence: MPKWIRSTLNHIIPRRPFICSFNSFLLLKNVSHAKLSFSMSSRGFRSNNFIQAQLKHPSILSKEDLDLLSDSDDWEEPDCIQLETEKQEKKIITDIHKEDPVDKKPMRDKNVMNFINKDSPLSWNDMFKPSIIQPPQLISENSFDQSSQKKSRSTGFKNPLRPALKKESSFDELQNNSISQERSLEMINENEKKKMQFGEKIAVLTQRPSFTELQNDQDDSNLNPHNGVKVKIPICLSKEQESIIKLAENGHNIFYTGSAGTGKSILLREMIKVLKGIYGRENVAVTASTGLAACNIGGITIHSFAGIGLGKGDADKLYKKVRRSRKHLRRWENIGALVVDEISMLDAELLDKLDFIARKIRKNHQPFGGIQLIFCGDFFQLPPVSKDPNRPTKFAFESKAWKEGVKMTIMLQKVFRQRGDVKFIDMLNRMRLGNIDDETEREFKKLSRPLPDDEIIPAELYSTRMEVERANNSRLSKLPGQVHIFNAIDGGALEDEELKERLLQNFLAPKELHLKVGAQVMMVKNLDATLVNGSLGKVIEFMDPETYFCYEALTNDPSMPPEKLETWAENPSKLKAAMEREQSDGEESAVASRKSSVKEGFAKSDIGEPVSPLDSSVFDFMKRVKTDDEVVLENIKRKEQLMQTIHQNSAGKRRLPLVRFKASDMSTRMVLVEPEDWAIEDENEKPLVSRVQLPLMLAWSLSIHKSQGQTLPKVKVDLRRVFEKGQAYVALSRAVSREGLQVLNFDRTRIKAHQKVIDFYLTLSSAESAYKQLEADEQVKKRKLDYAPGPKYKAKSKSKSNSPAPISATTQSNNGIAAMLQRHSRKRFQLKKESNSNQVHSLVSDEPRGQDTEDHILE

B1: RNA-DNA hybrid fork (MB1572/MB1571) (DNA:RNA)
DNA: GAACGCTATGTGAGTGACACTGGGTCACCACACCCACACCACACC
RNA: GGUGUGGUGUGGGUGUGGUGUGGGUCACAGUGAGUGUAUCGCAAG
modifications: MB1571 is all RNA; MB1572 is DNA

Experiments:
Pif1ΔN = biological target: T1, Pif1ΔN; assay: EMSA; 7.5 mM Mg2+; 25 mM HEPES pH 8.0, 5% glycerol, 50 mM NaOAc, 150 μM NaCl (so in the source), 7.5 mM MgCl2, 0.01% Tween-20; 0.2 nM DNA; 30 °C 30 min; 4 mM ATP when present (not stated per row); details: protein: recombinant, tags: SUMO tag in expression construct (pSUMO-Pif1ΔN)
[1] = biological target: T2, Pif1 (full-length recombinant); assay: as above; details: protein: recombinant, tags: SUMO tag in expression construct (pSUMO-Pif1)
[2] = label: 32P on helicase loading strand (5' end, T4 PNK; MB1572 implied), fork 1:26-45 2:1-20, unpaired 5' DNA arm 25 nt and 3' RNA arm 25 nt

Row | Binder | Kd (Pif1ΔN; label: 32P (5' end, T4 PNK)) [nM] | Kd ([1]; label: 32P (5' end, T4 PNK)) [nM] | Kd (Pif1ΔN; [2]) [nM] | Kd [1, 2] [nM]
1 | TGTGGTGTGTGTGGG (ssDNA) [Tel15] | 0.39 ± 0.058 | 112 ± 12.7 | – | –
2 | CGCCATGCTGATCCGTGTGGTGTGTGTGGG (ssDNA) [Tel30] | 0.41 ± 0.031 | – | – | –
3 | B1 | – | – | 0.135 ± 0.013 | 0.67 ± 0.085
